Columns and labels:
Assay in all cases: capture ELISA (anti-hFc / antibody / shed antigen / biotin-6D4)
[1] = biological target: shed MICA004 polypeptide (human) (UniProt Q29983)
[2] = biological target: shed MICA008 polypeptide (human) (UniProt Q29983)
[3] = biological target: shed MICA002 polypeptide (human) (UniProt Q29983)
[4] = biological target: shed MICB005 polypeptide (human) (UniProt Q29980)

Row | Binder | EC50 [1] [µg/mL] | Max OD450 [1] | EC50 [2] [µg/mL] | Max OD450 [2] | EC50 [3] [µg/mL] | Max OD450 [3] | EC50 [4] [µg/mL] | Max OD450 [4]
1 | 6E1.1.12 (antibody, human IgG1, kappa, V domains shown) VH: QGQMQQSGAELVKPGASVKLSCKTSGFTFSDNYISWLKQKPGQSLEWIAWIYAGTGGSSYNQKFRDKAQLTVDTSSRTAYMQLSSLTTEDSAIYYCARHDYYGTSGAWFAYWGRGTLVTVSA VL: DVLMTQTPLSLPVSLGDQASISCRSSQHIVHSNENTYLEWYLQKPGQSPKLLIYKVSNRFSGVPDRFSGSGSGTDFTLKISRVEAEDLGVYYCFQGSHVPWTFGGGTKVEIKR | 0.42 | 1.13 | 0.22 | 0.15 | 0.22 | 3.35 | 0.41 | 2.42
2 | #31 (antibody, V domains shown) VH: EVQLQQSGPELVKPGASVKVSCKASGYAFTKYNIYWVKQSHGKSLEWIGYIDPYNGGTVQNQKFKGKATLTVDKSSSTAYMHLNSLTSEDSAVYYCATTDGYSLFTYWGQGTLVTVSS VL: DIQMTQTTSSLSASLGDRVTISCRASQDIGNYLNWYQQKPDGTVKLLIYYTSRLHSGVPSRFSGSGSGTDYSLTISNLEQEDIATYFCQQGNTLPFTFGSGTKLEIK | 0.2 | 1.72 | 0.26 | 0.19 | 0.13 | 3.16 | 0.72 | 1.37
3 | #34 (antibody, V domains shown) VH: QVQLKQSGPELVKPGASVKVSCKASGYAFTKYNIYWVKQSHGKSLEWIGYIDPYNGGTVQNQKFKGKATLTVDKSSSTAYMHLNSLTSEDSAVYYCATTDGYSLFTYWGQGTLVTVSS VL: DIVLTQSPTTMAASPGEKITITCSASSSISSNYLHWYQQKPGFSPKLLIYRTSNLASGVPARFSGSGSGTSYSLTIGTMEAEDVATYYCQQGSSIPFTFGSGTKLEIK | 0.46 | 1.23 | 0.3 | 0.12 | 0.34 | 2.75 | 0.56 | 0.17
4 | #36 (antibody, V domains shown) VH: QVQLQQSGPELVKPGASVKVSCKASGYAFTKYNIYWVKQSHGKSLEWIGYIDPYNGGTVYNQKFKGKATLTVDKSSSTAYMHLNSLTSEDSAVYYCATTDGYSLFTYWGQGTLVTVSA VL: DIQMTQTTSSLSASLGDRVTISCRASQDISNYLNWYQQKPDGTVKLLIYYTSRLHSGVPSRFSGSGSGTDYSLTISNLEQEDIATYFCQQGNTLPFTFGSGTKLEIK | 0.47 | 1.31 | 0.38 | 0.16 | 0.32 | 3 | 0.84 | 0.68
5 | #38 (antibody, V domains shown) VH: QVQLQQSGAELARPGASVKLSCKASGYTFSIHWMQWVKQRPGQGLEWIGAIYPGNGDTKYTQKFKGKATLTADKSSSTAYMQLSNLASEDSAVYYCATLYGNYEAYWGQGTLVTVSA VL: DIVLTQSPASLSASVGETVTITCGASENIYGALNWYQRKQGKSPQLLIYGTTNLADGMSSRFSGSGSGRQYSLKISSLHPDDVATYYCQNVLTTPPWTFGGGTKLEIK | 0.09 | 2.66 | 0.2 | 0.16 | 0.04 | 3.32 | 0.02 | 2.97
6 | #39 (antibody, V domains shown) VH: QVQLQQSGAELVRPGTSVKVSCKASGYAFTDYLIEWVKQRPGQGLEWIGGINPGSGSTNYNEKFKGKAILTADKSSSTAYMQLSSLTSDDSAVYFCARLDGNYVGYWGQGTTLTVSS VL: DILLTQSPASLSASVGETVTITCRASGNIHNYLAWYQQKQGKSPQLLVYHAKTLADGVPSRFSGSGSGTQYSLKINSLQPEDFGSYYCQHFWSTPWTFGGGTKLEIK | 0.34 | 0.11 | 0.52 | 0.03 | 0.36 | 1.01 | 0.1 | 2.86
